{
  "source": "paper PMC5823908",
  "about": "“Human mitochondrial pyruvate carrier 2 as an autonomous membrane transporter” (Scientific Reports, 2018)",
  "proteins": {"B1": {"name": "purified human MPC2 after removal of GFP-10xHis (natural protein, UniProt O95563 1-127, looked up)", "chain": "MSAAGARGLRATYHRLLDKVELMLPEKLRPLYNHPAGPRTVFFWAPIMKWGLVCAGLADMARPAEKLSTAQSAVLMATGFIWSRYSLVIIPKNWSLFAVNFFVGAAGASQLFRIWRYNQELKAKAHK", "notes": "human mitochondrial pyruvate carrier 2 (MPC2), codon-optimized synthetic gene, NCBI NP_001137146.1; Residues of the PreScission site probably stay at the C-terminus after cleavage; also called purified MPC2; MPC2-detergent (DDM) complex; source: S. cerevisiae lacking endogenous MPC (3Δ); extracted with 1% C12E8, purified by Co-IMAC, PreScission Protease removal of GFP-10xHis, gel filtration in …"}},
  "target": "the molecule itself",
  "experiment": "cross-linking; purified MPC2-detergent (DDM) complex, about 10 μg protein, DSS 0.2-4 mM, 30 min, room temperature, 20 mM HEPES pH 8.0, 300 mM NaCl, 5% glycerol, 0.05 mM TCEP, 0.03% DDM",
  "data": [
    {"protein": "B1", "values": [
      {"measurement": "stoichiometry N", "result": 2}
    ]}
  ]
}
